The record followed here is US20200397860A1, “SLIT AND BONE GROWTH MODULATION” (Cornell University, priority 2018, published 2020).

The test system of data set [1] is bone marrow macrophages (BMMs). The experiment in a line: In vitro osteoclast formation assay with RANKL and recombinant SLIT3. The data set is classed as cell-based, mouse. On the procedure:
Murine bone marrow cells were flushed from the femur and tibia of mice and cultured in petri dishes in α-MEM medium with 10% FBS and 20 ng/ml of rM-CSF. Nonadherent cells were replated into tissue culture dishes and cultured in the same medium for 3 d to obtain osteoclast precursors. The osteoclast precursors then differentiated into osteoclasts in the presence of human RAMKL (50 ng/ml; PeproTech) and M-CSF for 3 days. Peripheral blood mononuclear cells from the whole blood of healthy volunteers were isolated by density gradient centrifugation using Ficoll (Invitrogen, Carlsbad, Calif.). CD14-positive cells were purified from fresh PBMCs using anti-CD14 magnetic beads (Miltenyi Biotec, Auburn, Calif.), as recommended by the manufacturer. Human monocytes were cultured in a-MEM with 10% FBS in the presence of M-CSF (20 ng/ml; PeproTech, Rocky Hill, N.J.) for 2 d to obtain monocyte-derived macrophages. Experiments with human cells were approved by the Hospital for Special Surgery Institutional Review Board.
Osteoclast culture, differentiation assays. Western Molting and qPCR. In vitro primary osteoclast cultures, quantitative PCR, Western blotting, and TRAP staining were performed as previously described. Primary antibodies were specific for SLIT3. (1:1,000; Cell Signaling) and HSP90 (1:2,000; Sigma).

Another data set concerns fracture site. The data set can be described thus: Femoral fracture model, local delivery of SLIT3 into the fracture site. The data set is classed as in vivo, mouse. On the procedure:
Micro-CT (μCT) analysis was conducted on a Scanco Medical μCT 35 system at the Citigroup Biomedical Imaging Core using the previously described parameters. (Shim et al. 2013). μCT analysis was performed by an investigator blinded to the genotypes of the animals under analysis.
For whole-mount immunostaining, retinas were collected from adult mice after systemic or local SLIT3 administration in bone fracture models.
Bone fracture was done following previously described protocols with modifications (Bradaschia-Correa et al. 2017). In brief, after anesthesia and surgical site sterilization, an incision above the right anterolateral femur was made. The femur and patella were then exposed, and a 27-gauge syringe needle was inserted parallel with the long axis of the femur through the patellar groove into the marrow cavity. The needle was then removed, and a single cut was made in the middle of the femoral diaphysis using a dremel saw with a diamond thin cutting wheel (VWR, Cat #100230-724). A blunt 25-gauge needle was then inserted into the marrow space through the hole made in the patella to stabilize the fracture. The needle was then trimmed to avoid it from projecting into the patella-femoral joint space. Muscle was then placed over the osteotomy site and stitched with absorbable sutures prior to closing the skin with wound clips.
Alternatively, the gelatin sponge was manually soaked with SLITS (300 ug/ml in PBS) or vehicle for 1 hour on ice and immediately placed to the surgical fracture area. All animals were euthanized by CO2 at time points indicated.
All bones were tested to failure using four-point bending on a precision electromagnetic-based load frame (EnduraTEC ELF 3200, Bose Corporation, Minnetonka, MC). Femurs were placed with the posterior surface on the lower supports, spaced 9.9 mm apart. The upper supports were spaced 3.3 ram. Load was applied at a rate of 0.1 mm/s until failure occurred. The failure load (N) and bending stiffness […] within the elastic range were calculated from the force-displacement curves and the four-point dimensions.

B1: SLIT3: SLIT3 recombinant protein (R&D); secreted ligand of ROBO receptors (protein, UniProt O75094 34-1523, looked up)
Slit homolog 3 protein: CPTKCTCSAASVDCHGLGLRAVPRGIPRNAERLDLDRNNITRITKMDFAGLKNLRVLHLEDNQVSVIERGAFQDLKQLERLRLNKNKLQVLPELLFQSTPKLTRLDLSENQIQGIPRKAFRGITDVKNLQLDNNHISCIEDGAFRALRDLEILTLNNNNISRILVTSFNHMPKIRTLRLHSNHLYCDCHLAWLSDWLRQRRTVGQFTLCMAPVHLRGFNVADVQKKEYVCPAPHSEPPSCNANSISCPSPCTCSNNIVDCRGKGLMEIPANLPEGIVEIRLEQNSIKAIPAGAFTQYKKLKRIDISKNQISDIAPDAFQGLKSLTSLVLYGNKITEIVKGLFDGLVSLQLLLLNANKINCLRVNTFQDLQNLNLLSLYDNKLQTISKGLFAPLQSIQTLHLAQNPFVCDCHLKWLADYLQDNPIETSGARCSSPRRLANKRISQIKSKKFRCSGSEDYRSRFSSECFMDLVCPEKCRCEGTIVDCSNQKLVRIPSHLPEYVTDLRLNDNEVSVLEATGIFKKLPNLRKINLSNNKIKEVREGAFDGAASVQELMLTGNQLETVHGRVFRGLSGLKTLMLRSNLIGCVSNDTFAGLSSVRLLSLYDNRITTITPGAFTTLVSLSTINLLSNPFNCNCHLAWLGKWLRKRRIVSGNPRCQKPFFLKEIPIQDVAIQDFTCDGNEESSCQLSPRCPEQCTCMETVVRCSNKGLRALPRGMPKDVTELYLEGNHLTAVPRELSALRHLTLIDLSNNSISMLTNYTFSNMSHLSTLILSYNRLRCIPVHAFNGLRSLRVLTLHGNDISSVPEGSFNDLTSLSHLALGTNPLHCDCSLRWLSEWVKAGYKEPGIARCSSPEPMADRLLLTTPTHRFQCKGPVDINIVAKCNACLSSPCKNNGTCTQDPVELYRCACPYSYKGKDCTVPINTCIQNPCQHGGTCHLSDSHKDGFSCSCPLGFEGQRCEINPDDCEDNDCENNATCVDGINNYVCICPPNYTGELCDEVIDHCVPELNLCQHEAKCIPLDKGFSCECVPGYSGKLCETDNDDCVAHKCRHGAQCVDTINGYTCTCPQGFSGPFCEHPPPMVLLQTSPCDQYECQNGAQCIVVQQEPTCRCPPGFAGPRCEKLITVNFVGKDSYVELASAKVRPQANISLQVATDKDNGILLYKGDNDPLALELYQGHVRLVYDSLSSPPTTVYSVETVNDGQFHSVELVTLNQTLNLVVDKGTPKSLGKLQKQPAVGINSPLYLGGIPTSTGLSALRQGTDRPLGGFHGCIHEVRINNELQDFKALPPQSLGVSPGCKSCTVCKHGLCRSVEKDSVVCECRPGWTGPLCDQEARDPCLGHRCHHGKCVATGTSYMCKCAEGYGGDLCDNKNDSANACSAFKCHHGQCHISDQGEPYCLCQPGFSGEHCQQENPCLGQVVREVIRRQKGYASCATASKVPIMECRGGCGPQCCQPTRSKRRKYVFQCTDGSSFVEEVERHLECGCLACS
Regarding B1, the “number of TRAP positive osteoclasts compared with controls” value in data set [1] (BMMs with RANKL and recombinant SLIT3, three days) was “no significant changes”. In data set [1] (BMMs with RANKL, three days), the “expression of osteoclast marker genes” value is listed as “modestly inhibited”. Moreover, in the data set on fracture site (implanted at fracture site), the “fracture healing, local delivery” value is “enhances bone-fracture healing”. In the data set on fracture site (local delivery), the “non-skeletal vascular abundance or morphology” value is “did not impact”. Also, the brain ultrastructure entry in the data set on fracture site (mouse, in vivo) is recorded as “did not impact”.
